# Data from patent publication US20200199241A1 (Chugai, published 2020).
# Target: T1, human FcRn (soluble human FcRn complexed with β2-microglobulin) (human, UniProt P61769 21-119, limits assumed)
# T1 construct: also called hFcRn
# Assay: SPR, pH 7.0;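 note: antibodies captured on a Protein L sensor chip with human FcRn injected as analyte, KD calculated from fitted association and dissociation rate constants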
# T1 sequence (chain, as listed by the source limits assumed, chain 1 of 2): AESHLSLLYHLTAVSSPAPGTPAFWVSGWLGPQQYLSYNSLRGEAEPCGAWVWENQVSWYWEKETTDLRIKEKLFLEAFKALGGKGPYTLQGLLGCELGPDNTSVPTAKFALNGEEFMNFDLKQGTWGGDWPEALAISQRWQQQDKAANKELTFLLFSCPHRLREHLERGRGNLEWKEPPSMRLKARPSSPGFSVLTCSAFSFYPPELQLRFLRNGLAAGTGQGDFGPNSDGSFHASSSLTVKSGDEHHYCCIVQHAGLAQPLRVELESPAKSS
# T1 sequence (P61769 21-119 limits assumed, chain 2 of 2): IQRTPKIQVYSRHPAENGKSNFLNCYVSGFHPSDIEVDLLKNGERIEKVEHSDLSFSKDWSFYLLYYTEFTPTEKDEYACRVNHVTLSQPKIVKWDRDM
row,Binder,Kd [nM]
1,"IgG1-F567 (antibody, EU numbering; copies: 2 + 2) heavy: QVQLQESGPGLVKPSETLSLTCAVSGHSISHDHAWSWVRQPPGEGLEWIGFISYSGITNYNPSLQGRVTISRDNSKNTLYLQMNSLRAEDTAVYYCARSLARTTAMDYWGEGTLVTVSSASTKGPSVFPLAPSSKSTSGGTAALGCLVKDYFPEPVTVSWNSGALTSGVHTFPAVLQSSGLYSLSSVVTVPSSSLGTQTYICNVNHKPSNTKVDKKVEPKSCDKTHTCPPCPAPELLGGPSVFLFPPKPKDTLYITRTPEVTCVVVDVSHEDPEVKFNWYVDGVEVHNAKTKPREEQYNSTYRVVSVLTVLHQDWLNGKEYKCKVSNKALPAPIEKTISKAKGQPREPQVYTLPPSRDELTKNQVSLTCLVKGFYPSDIAVEWESNGQPENNYKTTPPVLDSDGSFFLYSKLTVDKSRWQQGNVFSCSVIHEALHYHYTQKSLSLSP light: not shown",220
2,"IgG1-F571 (antibody, EU numbering; copies: 2 + 2) heavy: QVQLQESGPGLVKPSETLSLTCAVSGHSISHDHAWSWVRQPPGEGLEWIGFISYSGITNYNPSLQGRVTISRDNSKNTLYLQMNSLRAEDTAVYYCARSLARTTAMDYWGEGTLVTVSSASTKGPSVFPLAPSSKSTSGGTAALGCLVKDYFPEPVTVSWNSGALTSGVHTFPAVLQSSGLYSLSSVVTVPSSSLGTQTYICNVNHKPSNTKVDKKVEPKSCDKTHTCPPCPAPELLGGPSVFLFPPKPKDTLYISRTPEVTCVVVDVSHEDPEVKFNWYVDGVEVHEAKTKPREEQYNSTYRVVSVLAVLHHDWLNGKEYKCKVSNKALPAPIEKTISKAKGQPREPQVYTLPPSRDELTKNQVSLTCLVKGFYPSDIAVEWESNGQPENNYKTTPPVLDSDGSFFLYSKLTVDKSRWQQGNVFSCSVMHEALHYHYTQKSLSLSP light: not shown",81
3,"IgG1-F582 (antibody, EU numbering; copies: 2 + 2) heavy: QVQLQESGPGLVKPSETLSLTCAVSGHSISHDHAWSWVRQPPGEGLEWIGFISYSGITNYNPSLQGRVTISRDNSKNTLYLQMNSLRAEDTAVYYCARSLARTTAMDYWGEGTLVTVSSASTKGPSVFPLAPSSKSTSGGTAALGCLVKDYFPEPVTVSWNSGALTSGVHTFPAVLQSSGLYSLSSVVTVPSSSLGTQTYICNVNHKPSNTKVDKKVEPKSCDKTHTCPPCPAPELLGGPKVFLFPPKPKDTLYISRTPEVTCVVVDVSHEDPEVKFNWYVDGVEVHNAKTKPREEQYNSTYRVVSVLTPLHQDWLNGKEYKCKVSNKALPAPIEKTISKAKGQPREPQVYTLPPSRDELTKNQVSLTCLVKGFYPSDIAVEWESNGQPENNYKTTPPVLDSDGSFFLYSKLTVDKSRWQQGNVFSCSVMHEALHNHYTQKSLSLSP light: not shown",750
4,"IgG1-F576 (antibody, EU numbering; copies: 2 + 2) heavy: QVQLQESGPGLVKPSETLSLTCAVSGHSISHDHAWSWVRQPPGEGLEWIGFISYSGITNYNPSLQGRVTISRDNSKNTLYLQMNSLRAEDTAVYYCARSLARTTAMDYWGEGTLVTVSSASTKGPSVFPLAPSSKSTSGGTAALGCLVKDYFPEPVTVSWNSGALTSGVHTFPAVLQSSGLYSLSSVVTVPSSSLGTQTYICNVNHKPSNTKVDKKVEPKSCDKTHTCPPCPAPELLGGPSVFLFPPKPKDTLYISREPEVTCVVVDVSHEDPEVKFNWYVDGVEVHNAKTKPREEQYNSTYRVVSVLQVLHHDWLNGKEYKCKVSNKALPAPIEKTISKAKGQPREPQVYTLPPSRDELTKNQVSLTCLVKGFYPSDIAVEWESNGQPENNYKTTPPVLDSDGSFFLYSKLTVDKSRWQQGNVFSCSVMHEALHNHYTQKSLSLSP light: not shown",1600
5,"IgG1-F581 (antibody, EU numbering; copies: 2 + 2) heavy: QVQLQESGPGLVKPSETLSLTCAVSGHSISHDHAWSWVRQPPGEGLEWIGFISYSGITNYNPSLQGRVTISRDNSKNTLYLQMNSLRAEDTAVYYCARSLARTTAMDYWGEGTLVTVSSASTKGPSVFPLAPSSKSTSGGTAALGCLVKDYFPEPVTVSWNSGALTSGVHTFPAVLQSSGLYSLSSVVTVPSSSLGTQTYICNVNHKPSNTKVDKKVEPKSCDKTHTCPPCPAPELLGGPSVFLFPPKPKDTLYISREPEVTCVVVDVSHEDPEVKFNWYVDGVEVHEAKTKPREEQYNSTYRVVSVLTVLHQDWLNGKEYKCKVSNKALPAPIEKTISKAKGQPREPQVYTLPPSRDELTKNQVSLTCLVKGFYPSDIAVEWESNGQPENNYKTTPPVLDSDGSFFLYSKLTVDKSRWQQGNVFSCSVMHEALHYHYTQKSLSLSP light: not shown",72
6,"IgG1-F577 (antibody, EU numbering; copies: 2 + 2) heavy: QVQLQESGPGLVKPSETLSLTCAVSGHSISHDHAWSWVRQPPGEGLEWIGFISYSGITNYNPSLQGRVTISRDNSKNTLYLQMNSLRAEDTAVYYCARSLARTTAMDYWGEGTLVTVSSASTKGPSVFPLAPSSKSTSGGTAALGCLVKDYFPEPVTVSWNSGALTSGVHTFPAVLQSSGLYSLSSVVTVPSSSLGTQTYICNVNHKPSNTKVDKKVEPKSCDKTHTCPPCPAPELLGGPSVFLFPPKPKDTLYISRTPEVTCVVVDVSHEDPEVKFNWYVDGVEVHEAKTKPREEQYNSTYRVVSVLAVLHADWLNGKEYKCKVSNKALPAPIEKTISKAKGQPREPQVYTLPPSRDELTKNQVSLTCLVKGFYPSDIAVEWESNGQPENNYKTTPPVLDSDGSFFLYSKLTVDKSRWQQGNVFSCSVMHEALHNHYTQKSLSLSP light: not shown",1300
7,"IgG1-F580 (antibody, EU numbering; copies: 2 + 2) heavy: QVQLQESGPGLVKPSETLSLTCAVSGHSISHDHAWSWVRQPPGEGLEWIGFISYSGITNYNPSLQGRVTISRDNSKNTLYLQMNSLRAEDTAVYYCARSLARTTAMDYWGEGTLVTVSSASTKGPSVFPLAPSSKSTSGGTAALGCLVKDYFPEPVTVSWNSGALTSGVHTFPAVLQSSGLYSLSSVVTVPSSSLGTQTYICNVNHKPSNTKVDKKVEPKSCDKTHTCPPCPAPELLGGPSVFLFPPKPKDTLYISRTPEVTCVVVDVSHEDPEVKFNWYVDGVEVHEAKTKPREEQYNSTYRVVSVLQVLHHDWLNGKEYKCKVSNKALPAPIEKTISKAKGQPREPQVYTLPPSRDELTKNQVSLTCLVKGFYPSDIAVEWESNGQPENNYKTTPPVLDSDGSFFLYSKLTVDKSRWQQGNVFSCSVMHEALHNHYTQKSLSLSP light: not shown",860
8,"IgG1-F569 (antibody, EU numbering; copies: 2 + 2) heavy: QVQLQESGPGLVKPSETLSLTCAVSGHSISHDHAWSWVRQPPGEGLEWIGFISYSGITNYNPSLQGRVTISRDNSKNTLYLQMNSLRAEDTAVYYCARSLARTTAMDYWGEGTLVTVSSASTKGPSVFPLAPSSKSTSGGTAALGCLVKDYFPEPVTVSWNSGALTSGVHTFPAVLQSSGLYSLSSVVTVPSSSLGTQTYICNVNHKPSNTKVDKKVEPKSCDKTHTCPPCPAPELLGGPSVFLFPPKPKDTLYISRQPEVTCVVVDVSHEDPEVKFNWYVDGVEVHNAKTKPREEQYNSTYRVVSVLAVLHHDWLNGKEYKCKVSNKALPAPIEKTISKAKGQPREPQVYTLPPSRDELTKNQVSLTCLVKGFYPSDIAVEWESNGQPENNYKTTPPVLDSDGSFFLYSKLTVDKSRWQQGNVFSCSVMHEALHYHYTQKSLSLSP light: not shown",200
9,"IgG1-F578 (antibody, EU numbering; copies: 2 + 2) heavy: QVQLQESGPGLVKPSETLSLTCAVSGHSISHDHAWSWVRQPPGEGLEWIGFISYSGITNYNPSLQGRVTISRDNSKNTLYLQMNSLRAEDTAVYYCARSLARTTAMDYWGEGTLVTVSSASTKGPSVFPLAPSSKSTSGGTAALGCLVKDYFPEPVTVSWNSGALTSGVHTFPAVLQSSGLYSLSSVVTVPSSSLGTQTYICNVNHKPSNTKVDKKVEPKSCDKTHTCPPCPAPELLGGPSVFLFPPKPKDTLYISRTPEVTCVVVDVSHEDPEVKFNWYVDGVEVHEAKTKPREEQYNSTYRVVSVLQVLHADWLNGKEYKCKVSNKALPAPIEKTISKAKGQPREPQVYTLPPSRDELTKNQVSLTCLVKGFYPSDIAVEWESNGQPENNYKTTPPVLDSDGSFFLYSKLTVDKSRWQQGNVFSCSVMHEALHNHYTQKSLSLSP light: not shown",570
10,"IgG1-F572 (antibody, EU numbering; copies: 2 + 2) heavy: QVQLQESGPGLVKPSETLSLTCAVSGHSISHDHAWSWVRQPPGEGLEWIGFISYSGITNYNPSLQGRVTISRDNSKNTLYLQMNSLRAEDTAVYYCARSLARTTAMDYWGEGTLVTVSSASTKGPSVFPLAPSSKSTSGGTAALGCLVKDYFPEPVTVSWNSGALTSGVHTFPAVLQSSGLYSLSSVVTVPSSSLGTQTYICNVNHKPSNTKVDKKVEPKSCDKTHTCPPCPAPELLGGPSVFLFPPKPKDTLYISRTPEVTCVVVDVSHEDPEVKFNWYVDGVEVHNAKTKPREEQYNSTYRVVSVLAVLHHDWLNGKEYKCKVSNKALPAPIEKTISKAKGQPREPQVYTLPPSRDELTKNQVSLTCLVKGFYPSDIAVEWESNGQPENNYKTTPPVLDSDGSFFLYSKLTVDKSRWQQGNVFSCSVIHEALHYHYTQKSLSLSP light: not shown",100
11,"IgG1-F568 (antibody, EU numbering; copies: 2 + 2) heavy: QVQLQESGPGLVKPSETLSLTCAVSGHSISHDHAWSWVRQPPGEGLEWIGFISYSGITNYNPSLQGRVTISRDNSKNTLYLQMNSLRAEDTAVYYCARSLARTTAMDYWGEGTLVTVSSASTKGPSVFPLAPSSKSTSGGTAALGCLVKDYFPEPVTVSWNSGALTSGVHTFPAVLQSSGLYSLSSVVTVPSSSLGTQTYICNVNHKPSNTKVDKKVEPKSCDKTHTCPPCPAPELLGGPSVFLFPPKPKDTLYISREPEVTCVVVDVSHEDPEVKFNWYVDGVEVHNAKTKPREEQYNSTYRVVSVLAVLHHDWLNGKEYKCKVSNKALPAPIEKTISKAKGQPREPQVYTLPPSRDELTKNQVSLTCLVKGFYPSDIAVEWESNGQPENNYKTTPPVLDSDGSFFLYSKLTVDKSRWQQGNVFSCSVMHEALHYHYTQKSLSLSP light: not shown",110
12,"IgG1-F583 (antibody, EU numbering; copies: 2 + 2) heavy: QVQLQESGPGLVKPSETLSLTCAVSGHSISHDHAWSWVRQPPGEGLEWIGFISYSGITNYNPSLQGRVTISRDNSKNTLYLQMNSLRAEDTAVYYCARSLARTTAMDYWGEGTLVTVSSASTKGPSVFPLAPSSKSTSGGTAALGCLVKDYFPEPVTVSWNSGALTSGVHTFPAVLQSSGLYSLSSVVTVPSSSLGTQTYICNVNHKPSNTKVDKKVEPKSCDKTHTCPPCPAPELLGGPKVFLFPPKPKDTLYISRTPEVTCVVVDVSHEDPEVKFNWYVDGVEVHNAKTKPREEQYNSTYRVVSVLTPLHQDWLNGKEYKCKVSNKALPAPIEKTISKAKGQPREPQVYTLPPSRDELTKNQVSLTCLVKGFYPSDIAVEWASNGQPENNYKTTPPVLDSDGSFFLYSKLTVDKSRWQQGNVFSCSVMHEALHNHYTQKSLSLSP light: not shown",780
13,"IgG1-F570 (antibody, EU numbering; copies: 2 + 2) heavy: QVQLQESGPGLVKPSETLSLTCAVSGHSISHDHAWSWVRQPPGEGLEWIGFISYSGITNYNPSLQGRVTISRDNSKNTLYLQMNSLRAEDTAVYYCARSLARTTAMDYWGEGTLVTVSSASTKGPSVFPLAPSSKSTSGGTAALGCLVKDYFPEPVTVSWNSGALTSGVHTFPAVLQSSGLYSLSSVVTVPSSSLGTQTYICNVNHKPSNTKVDKKVEPKSCDKTHTCPPCPAPELLGGPSVFLFPPKPKDTLYITRTPEVTCVVVDVSHEDPEVKFNWYVDGVEVHNAKTKPREEQYNSTYRVVSVLAVLHHDWLNGKEYKCKVSNKALPAPIEKTISKAKGQPREPQVYTLPPSRDELTKNQVSLTCLVKGFYPSDIAVEWESNGQPENNYKTTPPVLDSDGSFFLYSKLTVDKSRWQQGNVFSCSVMHEALHYHYTQKSLSLSP light: not shown",130
